Laboratory results: US11673916B2, “Neuroprotective peptides and methods of their use” (University of Pittsburgh—Of the Commonwealth System of …, priority 2020, dated 2023)

Biological target: T1, Kv2.1 surface clusters (Rattus norvegicus, UniProt P15387)
T1 construct: expressed in transfected cells; host or cells: primary rat cortical neurons (E16-17 Sprague-Dawley), Lipofectamine 2000
T1 sequence (P15387 1-857): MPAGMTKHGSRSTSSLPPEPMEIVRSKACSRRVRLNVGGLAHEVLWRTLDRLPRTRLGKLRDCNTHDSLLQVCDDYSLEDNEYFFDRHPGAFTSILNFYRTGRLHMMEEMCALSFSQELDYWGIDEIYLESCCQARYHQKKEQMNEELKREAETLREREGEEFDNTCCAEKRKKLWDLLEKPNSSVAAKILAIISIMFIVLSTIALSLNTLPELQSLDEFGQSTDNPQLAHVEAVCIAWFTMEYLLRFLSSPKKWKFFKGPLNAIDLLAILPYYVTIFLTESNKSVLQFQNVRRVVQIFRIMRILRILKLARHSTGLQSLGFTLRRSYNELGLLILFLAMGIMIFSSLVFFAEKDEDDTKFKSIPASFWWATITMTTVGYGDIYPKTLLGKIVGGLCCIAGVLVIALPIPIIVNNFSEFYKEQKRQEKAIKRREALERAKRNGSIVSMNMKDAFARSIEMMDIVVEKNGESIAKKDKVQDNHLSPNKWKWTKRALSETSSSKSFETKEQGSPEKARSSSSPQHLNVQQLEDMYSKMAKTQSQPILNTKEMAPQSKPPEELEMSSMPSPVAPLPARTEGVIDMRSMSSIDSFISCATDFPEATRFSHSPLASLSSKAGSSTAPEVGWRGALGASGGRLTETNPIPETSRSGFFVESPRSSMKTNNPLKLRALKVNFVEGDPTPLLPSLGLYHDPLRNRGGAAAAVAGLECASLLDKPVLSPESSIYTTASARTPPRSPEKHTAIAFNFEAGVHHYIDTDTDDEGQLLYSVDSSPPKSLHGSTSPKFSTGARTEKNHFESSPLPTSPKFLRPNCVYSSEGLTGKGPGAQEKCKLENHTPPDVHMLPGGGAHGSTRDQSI
Assay: Kv2.1 surface cluster density in live Kv2.1-GFP-transfected cortical neurons treated with TAT-linked peptides
Type: cell-based
Description: In vitro experiments utilized primary cortical neuronal cultures prepared from embryonic day 16-17 Sprague-Dawley rats of either sex in a protocol described previously (McCord et al., J Physiol (Lond). 592: 3511-3521, 2014). Timed-pregnant rats (Charles River Laboratories, Wilmington, Mass.) were sacrificed by CO2 inhalation. Embryonic cortices were dissociated with trypsin (0.6 mg/mL) and cells plated in sterile 6-well plates on poly-L-ornithine-coated glass coverslips at a density of 670,000 cells per well. Cytosine arabinoside (1-2 μM) was utilized to inhibit non-neuronal proliferation on day 14 in vitro (DIV); cultures were utilized at 21-25 DIV.
; Invitrogen, Carlsbad, Calif.). […]; Thermo Fisher Scientific, Waltham, Mass.). […]. Cultures were utilized 18-24 hours following transfection. cDNA amounts for each transfection experiment are described below for each figure. FIG. 1: 0.375 μg/well Kv2.1-GFP plasmid, 0.495 μg/well pcDNA3 vector plasmid, and 0.63 μg/well of either DP-1 or Sc-1, or Kv2.2 CT-expressing plasmid. FIGS. 2, 8, 9, 10, 12: 0.375 μg/well Kv2.1-GFP plasmid, 0.15 μg/well tdTomato plasmid (from Gerhart Ryffel; Addgene plasmid #30530), and 0.975 μg/well pcDNA3 vector plasmid.
To analyze Kv2.1 distribution in live primary cortical neurons, cells were transfected with both a tdTomato construct and a GFP-tagged Kv2.1 construct (O'Connell, et al., J Neurosci. 26: 9609-9618, 2006) and imaged on a Nikon A1+ confocal microscope (Nikon, Tokyo, Japan). Cells were chosen at random by looking only at the tdTomato signal (561 nm), in order to avoid bias. At least three separate culture dates were used per experiment and three coverslips were transfected per condition each time. For these experiments, “n” refers to the total number of cells imaged. Five to 15 optical sections (0.5 μm) capturing the cell surface were obtained of single cells at 60× magnification (Schulien et al., J Physiol (Lond). 594: 2647-2659, 2016), creating a maximum-intensity projection (MAX-IP) of Kv2.1-GFP distribution. To analyze Kv2.1 distribution in the cerebral cortex of fixed brain slices, 51-54 image fields were obtained at 60× magnification across 18 sections from three fixed mouse brains per treatment (total of 6 animals). Image fields were captured by first focusing on an area of superficial cortex closest to the cover glass. Next, 24 optical sections (0.5 μm) were obtained moving deeper into the tissue in order to produce a 12 μm maximum-intensity projection for analysis of Kv2.1 distribution. Laser power, HV (gain), offset, pinhole size, and all camera parameters were kept identical between all samples in a given experiment. Nikon Instruments Software Advanced Research (NIS-Elements AR) was utilized to analyze GFP-tagged Kv2.1 channel cluster distribution. For live images of transfected neurons, object count parameters were customized to define a Kv2.1 cluster as an area of high intensity GFP fluorescence (compared to background), measuring 0.05 μm^2 or larger (Schulien et al., J Physiol (Lond). 594: 2647-2659, 2016). Kv2.1 cluster density was calculated by normalizing the number of Kv2.1 clusters counted to the somatic area of each neuron (#Kv2.1 clusters/μm^2). Due to high variability in GFP-Kv2.1 expression between individual neurons, intensity thresholding required cell-specific local-background subtraction. In each neuron analyzed, two populations on Kv2.1-GFP expression were first noted—(a) highly localized signals of clustered Kv2.1 channels, and (b) diffuse background staining that represents freely-dispersed, conducting Kv2.1 channels on the plasma membrane. A small region of interest (ROI) within region (b) was set as the background subtraction standard of the image, creating an optimal signal-to-noise ratio for clustered Kv2.1 channels. […]

[1] = 3 μM peptide, two-hour treatment, mean±SEM (FIG. 2B)
[2] = 10 μM peptide, two-hour treatment, mean±SEM (FIG. 2B)

Row | Sequence | mean Kv2.1 surface cluster density [1] | mean Kv2.1 surface cluster density [2] | mean Kv2.1 surface cluster density (10 μM, 2 h after initiation of treatment, mean+/-SEM (FIG. 9)) | mean Kv2.1 surface cluster density (10 μM, 24 h after initiation of treatment, peptide removed after two hours, mean+/-SEM (FIG. 9)) | time-course of Kv2.1 surface cluster dispersal (10 μM, before, 60 and 120 minutes post-treatment (FIG. 8)) | concentrations at which effective as in vitro declustering tool (hypothesized from the 3 μM and 10 μM results) [µM]
1 | YGRKKRRQRRRDFSSIST [TAT-Sc-2, TAT-linked scramble control peptide] | 0.15±0.01 #Kv2.1 clusters/μm^2 of neuronal soma | 0.16±0.02 #Kv2.1 clusters/μm^2 of neuronal soma |  |  |  | 
2 | YGRKKRRQRRRSIDSFTS [TAT-DP-2, TAT-linked declustering peptide 2] | 0.07±0.02 #Kv2.1 clusters/μm^2 of neuronal soma | 0.08±0.01 #Kv2.1 clusters/μm^2 of neuronal soma | 0.06±0.01 #Kv2.1 clusters/μm^2 of neuronal soma | 0.09±0.01 #Kv2.1 clusters/μm^2 of neuronal soma | time-dependent | 3 to 10
